{"source": "patent US20210106652A1", "about": "“Immunogenic Compounds For Treatment Of Fibrosis, Autoimmune Diseases And Inflammation” (ENTEROME S.A., priority 2018, published 2021)", "molecules": {"B1": {"name": "IL13RA2-B (FLPFGFILV, SEQ ID NO: 31) (peptide)", "peptide": "FLPFGFILV", "notes": "also called IL13RA2-B pAg; candidate peptide"}, "B2": {"name": "peptide 1A9V (SEQ ID NO: 263 with tryptophan 1 to alanine and isoleucine 9 to valine) (peptide)", "peptide": "ALPFGFILV", "notes": "Analogue described by Eguchi et al. 2006; also called comparative peptide 1A9V"}, "B3": {"name": "IL13RA2-L (SEQ ID NO: 279) (peptide)", "peptide": "FLPFGFILPV", "notes": "also called IL13R2A-L"}}, "key": {"[1]": {"target": "T1, HLA-A*0201 (Homo sapiens, UniProt P04439, D140Y/D185E/D98H/E176V/E277Q/G131W/G231S/I119V/I121R/I166T/I218V/L300P/L318F/N151K/N90K/P208A/P217A/Q86G/Q94H/R138H/R169H/T345S)", "T1 construct": "human tumoral cell T2 which expresses the HLA-A*0201 molecule; endogenous in cells; host or cells: T2 cells (human, TAP1/2 negative)", "assay": "Affinity of the peptide to HLA-A*0201 on T2 cell line (FACS, anti-HLA-A2)", "assay_type": "binding", "conditions": "for In vitro binding affinity: Example 5, relative affinity = concentration of peptide inducing 20% of HLA-A*0201 expression / that of reference peptide HIV pol 589-597, lower = higher affinity; for Concentration of peptide that induces 20% of HLA-A2 expression: Example 7; for binding to HLA-A*0201 (in words): T2 cells", "description": "The experimental protocol is similar to the one that was validated for peptides presented by the HLA-A*0201 (Tourdot et al., A general strategy to enhance immunogenicity of low-affinity HLA-A2.1-associated peptides: implication in the identification of cryptic tumor epitopes. Eur J Immunol. 2000 December; 30(12):3411-21). Affinity measurement of the peptides is achieved with the human tumoral cell T2 which expresses the HLA-A*0201 molecule, but which is TAP1/2 negative and incapable of presenting endogenous peptides.\n(§1) T2 cells (2.10^5 cells per well) are incubated with decreasing concentrations of peptides from 100 μM to 0.1 μM in a AIMV medium supplemented with 100 ng/μl of human β2m at 37° C. for 16 hours. Cells are then washed two times and marked with the anti-HLA-A2 antibody coupled to PE (clone BB7.2, BD Pharmagen).\nThe analysis is achieved by FACS (Guava Easy Cyte).\n(§2) For each peptide concentration, the geometric mean of the labelling associated with the peptide of interest is substracted from background noise and reported as a percentage of the geometric mean of the […] labelling obtained for the reference peptide HIV pol 589-597 at a concentration of 100 μM. The relative affinity is then determined as follows:\nrelative affinity=concentration of each peptide inducing 20% of expression of HLA-A*0201/concentration of the reference peptide inducing 20% of expression of HLA-A*0201.\nThe experimental protocol was similar to the one that was validated for peptides presented by the HLA-A*0201 (Tourdot et al., A general strategy to enhance immunogenicity of low-affinity HLA-A2.1-associated peptides: implication in the identification of cryptic tumor epitopes. Eur J Immunol. 2000 December; 30(12):3411-21).\nas §1, with “were” for “are”\nThe analysis was achieved by FACS (Guava Easy Cyte).\nas §2, with “was subtracted” for “is substracted”\nThe experimental protocol, materials and methods correspond to those outlined in Example 3, with the only difference that the above mentioned (poly)peptides were used.\nThe experimental protocol, materials and methods correspond to those outlined in Example 2, with the only difference that the above mentioned (poly)peptides were used."}, "[2]": {"test_system": "HHD DR3 mice", "assay": "IFN-γ ELISpot immunogenicity and cross-reactivity in HHD DR3 (HLA-A2 transgenic) mice", "assay_type": "in vivo, mouse", "conditions": "100 μg s.c. d0, d14 with helper peptide (DR3) and IFA; challenge with either IL13RA2-L or IL13RA2-H", "method": "The (poly)peptide of the present invention IL13RA2-L (SEQ ID NO: 279) and the corresponding human reference peptide IL13RA2-H (SEQ ID NO: 263) were tested in distinct groups of male and female HHD DR3 mice expressing human HLA-A2 and HLA-DR3 MHC and lacking the murine H-2 class I and class II MHCs. Groups of 5 mice (male and female) were subcutaneously injected on days 0 and 14 with 100 μg of IL13RA2-L (SEQ ID NO: 279) or IL13RA2-H (SEQ ID NO: 263), 150 μg of helper peptide (DR3) and IFA. On day 21, the mice were euthanized and splenocytes were prepared and stimulated in vitro with IL13RA2-L or the human corresponding peptide IL13RA2-H to assess their capacity to secrete IFN- as assessed by ELISpot. Concanavalin A (ConA) was used as a positive control."}, "[3]": {"target": "T2, HLA-A*0201 molecule expressed on human T2 cells (human)", "T2 construct": "MHC class I molecule on T2 cells; also called HLA-A2", "assay": "T2 cell assay; relative affinity against reference peptide HIV pol 589-597"}}, "data": [{"molecule": "1F9M: tryptophan at position 1 of SEQ ID No 263 substituted by phenylalanine and isoleucine at position 9 substituted by methionine (FLPFGFILM)", "values": [{"measurement": "In vitro binding affinity", "setting": "[1]", "value": 2.62}]}, {"molecule": "1I9A: tryptophan at position 1 of SEQ ID No 263 substituted by isoleucine and isoleucine at position 9 substituted by alanine (ILPFGFILA)", "values": [{"measurement": "In vitro binding affinity", "setting": "[1]", "value": 2.22}]}, {"molecule": "ALPFGFILV [1A9V]", "values": [{"measurement": "In vitro binding affinity", "setting": "[1]", "value": 3.06}, {"measurement": "Concentration of peptide that induces 20% of HLA-A2 expression", "setting": "[1]", "value": 36.5, "unit": "µM"}]}, {"molecule": "CLYTFLIST [IL13RA2-H2]", "values": [{"measurement": "binding to HLA-A*0201 (in words)", "setting": "[1]", "value": "do not bind to or show much lower affinity"}]}, {"molecule": "FLPFGFILPV [IL13RA2-L]", "values": [{"measurement": "immune response (IFN-γ ELISpot, spot forming cells) after immunisation", "setting": "[2]", "value": "strongly immunogenic"}, {"measurement": "Concentration of peptide that induces 20% of HLA-A2 expression", "setting": "[1]", "value": 3.2, "unit": "µM"}]}, {"molecule": "FLPFGFILV [IL13RA2-B]", "values": [{"measurement": "Concentration of peptide that induces 20% of HLA-A2 expression", "setting": "[1]", "value": 2.9, "unit": "µM"}, {"measurement": "binding to HLA-A*0201 (in words)", "setting": "[1]", "value": "bind strongly"}]}, {"molecule": "WLPFGFILI [IL13RA2-H]", "values": [{"measurement": "immune response (IFN-γ ELISpot, spot forming cells) after immunisation", "setting": "[2]", "value": "does not induce an immune response"}, {"measurement": "binding to HLA-A*0201 (in words)", "setting": "[1]", "value": "do not bind to or show much lower affinity"}]}, {"molecule": "YLYTFLIST [IL13RA2-B2]", "values": [{"measurement": "binding to HLA-A*0201 (in words)", "setting": "[1]", "value": "bind strongly"}]}, {"molecule": "B1", "values": [{"measurement": "In vitro binding affinity", "setting": "[3]", "value": 0.3}]}, {"molecule": "B2", "values": [{"measurement": "In vitro binding affinity", "setting": "[3]", "value": 3.6}]}, {"molecule": "B3", "values": [{"measurement": "In vitro binding affinity", "setting": "[3]", "value": 0.3}]}]}
